Reference: publication PMC5016554

Target: growth hormone secretagogue receptor (GHSR) (mouse (endogenous in pancreatic delta cells)) (UniProt Q99P50)
Sequence of UniProt Q99P50 (Q99P50 whole entry, stated change not applied): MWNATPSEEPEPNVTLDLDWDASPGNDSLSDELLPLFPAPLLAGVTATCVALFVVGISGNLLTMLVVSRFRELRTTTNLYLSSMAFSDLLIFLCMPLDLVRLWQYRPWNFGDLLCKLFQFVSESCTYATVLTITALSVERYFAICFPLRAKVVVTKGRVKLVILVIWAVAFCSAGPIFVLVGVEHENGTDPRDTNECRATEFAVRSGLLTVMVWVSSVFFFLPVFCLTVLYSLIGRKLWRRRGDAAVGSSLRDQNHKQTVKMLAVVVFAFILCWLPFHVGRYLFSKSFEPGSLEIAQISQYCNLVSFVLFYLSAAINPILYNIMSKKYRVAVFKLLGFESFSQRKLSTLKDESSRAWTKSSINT

SST release from perfused mouse pancreas at 12 mmol/l glucose, 1 and 100 nmol/l ghrelin, fold increase: 2.7 fold
Substance: Mouse ghrelin (peptide)
